Experimental data taken from patent US20140179896A1 (published 2014).

Target: T1, human vascular endothelial growth factor receptor-2 Fc chimera (KDR-Fc) (human, UniProt P35968 20-764)
T1 construct: range 1-764; also called human VEGFR-2; VEGF-R2-Fc; not shown: human IgG1 Fc
Experiment: radioactive equilibrium binding, 1 nM KDR-Fc
Description: To prepare ³⁵S-labeled binding proteins for analysis, mRNA was prepared as described above for RNA-protein fusion production but the linker ligation step was omitted. The mRNA was expressed using rabbit reticulocyte lysate translation kit (Ambion) in the presence of ³⁵S-labeled Met at 30° C. for 1 hour. Expressed protein was purified on M2-agarose Flag beads (Sigma) as described above. This procedure produced the encoded protein without the nucleic acid tail. In a direct binding assay, VEGF-R2-Fc fusions in concentrations ranging from 0 to 200 nM were added to a constant concentration of the purified protein (0.2 or 0.5 nM) and incubated at 30° C. for 1 hour in buffer B. The receptor-binder complexes were captured using Protein A magnetic beads for another 10 minutes at room temperature using a Kingfisher™ The beads were washed with six reaction volumes of buffer B. The protein was eluted from the beads with 100 μL of 0.1 M KOH. […] of the reaction mixture and elution were dried onto a LumaPlate-96 (Packard) and the amount of ³⁵S on the plate was measured using a TopCount NXT instrument (Packard). The amount of fibronectin-based scaffold protein bound to the target was estimated as a percent of radioactivity eluted from Protein A magnetic beads compare to radioactivity in the reaction mixture. Nonspecific binding of fibronectin-based scaffold proteins to the beads was determined by measuring binding in the absence of KDR-Fc and represented less than 1-2% of the input. Specific binding was obtained through subtraction of nonspecific binding from total binding. Data was analyzed using the GraphPad Prizm software (GraphPad Software, Inc, San Diego, Calif.), fitted using a one site, non-linear binding equation.

T1 sequence (P35968 20-764 limits assumed, change not shown, form in doubt): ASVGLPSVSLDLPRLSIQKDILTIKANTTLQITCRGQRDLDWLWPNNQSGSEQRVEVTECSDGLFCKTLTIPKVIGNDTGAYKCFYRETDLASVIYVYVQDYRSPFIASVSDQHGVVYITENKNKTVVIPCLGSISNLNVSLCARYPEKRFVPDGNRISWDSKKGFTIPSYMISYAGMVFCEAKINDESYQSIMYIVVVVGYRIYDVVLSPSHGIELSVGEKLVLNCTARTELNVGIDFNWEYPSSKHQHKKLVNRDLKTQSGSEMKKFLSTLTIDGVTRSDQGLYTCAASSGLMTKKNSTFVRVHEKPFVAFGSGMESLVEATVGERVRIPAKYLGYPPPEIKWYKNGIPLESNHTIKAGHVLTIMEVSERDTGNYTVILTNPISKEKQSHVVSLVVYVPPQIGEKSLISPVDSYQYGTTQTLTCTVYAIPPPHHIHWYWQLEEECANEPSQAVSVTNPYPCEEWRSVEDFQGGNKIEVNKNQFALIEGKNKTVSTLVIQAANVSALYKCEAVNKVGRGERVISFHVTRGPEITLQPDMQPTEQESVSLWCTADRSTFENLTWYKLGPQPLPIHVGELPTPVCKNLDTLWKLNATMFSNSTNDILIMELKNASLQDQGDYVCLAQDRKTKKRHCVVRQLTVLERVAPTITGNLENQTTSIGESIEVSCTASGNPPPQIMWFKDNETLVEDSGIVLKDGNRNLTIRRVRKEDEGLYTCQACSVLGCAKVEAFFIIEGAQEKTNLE

Row | Binder | Binding to 1 nM KDR, %
1 | 3′C5 PR4 (designed binder, Del 1-8) EVVAATPTSLLISWRHPHFPTRYYRITYGETGGNSPVQEFTVPLQPPTATISGLKPGVDYTITGYAVTDAMYGRELMTPISINYRT | 27%
2 | 3′C6 PR4 (designed binder, Del 1-8) EVVAATPTSLLISWRHPHFPTRYYRITYGETGGNSPVQEFTVPLQPPTATISGLKPGVDYTITGYAVTMGPNDRELLTPISINYRT | 37%
3 | 3′C8 PR4 (designed binder, Del 1-8) EVVAATPTSLLISWRHPHFPTRYYRITYGETGGNSPVQEFTVPLQPPTATISGLKPGVDYTITGYAVTEGLNDHELMIPISINYRT | 19%
4 | 3′C12 PR4 (designed binder, Del 1-8) EVVAATPTSLLISWRHPHFPTRYYRITYGETGGNSPVQEFTVPLQPPTATISGLKPGVDYTITGYAVTIGPNNHELLTPISINYRT | 33%
5 | 3′D2 PR4 (designed binder, Del 1-8) EVVAATPTSLLISWRHPHFPTRYYRITYGETGGNSPVQEFTVPLQPPTATISGLKPGVDYTITGYAVTVESNGHALFVPISINYRT | 19%
6 | 3′D3 PR4 (designed binder, Del 1-8) EVVAATPTSLLISWRHPHFPTRYYRITYGETGGNSPVQEFTVPLQPPTATISGLKPGVDYTITGYAVTPGPGDRELITPISINYRT | 42%
7 | 3′D8 PR4 (designed binder, Del 1-8) EVVAATPTSLLISWRHPHFPTRYYRITYGETGGNSPVQEFTVPLQPPTATISGLKPGVDYTITGYAVTAGPNDHQLFTPISINYRT | 27%
8 | 3′D9 PR4 (designed binder, Del 1-8) EVVAATPTSLLISWRHPHFPTRYYRITYGETGGNSPVQEFTVPLQPPTATISGLKPGVDYTITGYAVTGYYNDRELLTPISINYRT | 30%
9 | 3′E1 PR4 (designed binder, Del 1-8) EVVAATPTSLLISWRHPHFPTRYYRITYGETGGNSPVQEFTVPLQPPTATISGLKPGVDYTITGYAVTVAPNGHELFTPISINYRT | 32%
10 | 3′E3 PR4 (designed binder, Del 1-8) EVVAATPTSLLISWRHPHFPTRYYRITYGETGGNSPVQEFTVPLQPPTATISGLKPGVDYTITGYAVTMAQYGRELLTPISINYRT | 41%
11 | 3′E5 PR4 (designed binder, Del 1-8) EVVAATPTSLLISWRHPHFPTRYYRITYGETGGNSPVQEFTVPLQPPTATISGLKPGVDYTITGYAVTVAWDGRELFTPISINYRT | 23%
12 | 3′E9 PR4 (designed binder, Del 1-8) EVVAATPTSLLISWRHPHFPTRYYRITYGETGGNSPVQEFTVPLQPPTATISGLKPGVDYTITGYAVTVEQDGHVLYIPISINYRT | 44%
13 | 3′E11 PR4 (designed binder, Del 1-8) EVVAATPTSLLISWRHPHFPTRYYRITYGETGGNSPVQEFTVPLQPPTATISGLKPGVDYTITGYAVTVGPHDRELLTPISINYRT | 17%
14 | 3′F1 PR4 (designed binder, Del 1-8) EVVAATPTSLLISWRHPHFPTRYYRITYGETGGNSPVQEFTVPLQPPTATISGLKPGVDYTITGYAVTVAQDGHFLYTPISINYRT | 31%
15 | 3′F2 PR4 (designed binder, Del 1-8) EVVAATPTSLLISWRHPHFPTRYYRITYGETGGNSPVQEFTVPLQPPTATISGLKPGVDYTITGYAVTLGKNDHELLTPISINYRT | 29%
16 | 3′F3 PR4 (designed binder, Del 1-8) EVVAATPTSLLISWRHPHFPTRYYRITYGETGGNSPVQEFTVPLQPPTATISGLKPGVDYTITGYAVTLGHNDRELLTPISINYRT | 37%
17 | 3′F6 PR4 (designed binder, Del 1-8) EVVAATPTSLLISWRHPHFPTRYYRITYGETGGNSPVQEFTVPLQPPTATISGLKPGVDYTITGYAVTIEQSGLQLMTPISINYRT | 24%
18 | 3′F9 PR4 (designed binder, Del 1-8) EVVAATPTSLLISWRHPHFPTRYYRITYGETGGNSPVQEFTVPLQPPTATISGLKPGVDYTITGYAVTLGPNDRELMTPISINYRT | 18%

Row | Binder | Binding to 1 nM KDR, %
19 | 3′F12 PR4 (designed binder, Del 1-8) EVVAATPTSLLISWRHPHFPTRYYRITYGETGGNSPVQEFTVPLQPPTATISGLKPGVDYTITGYAVTLSQTDHELLTPISINYRT | 17%
20 | 3′G1 PR4 (designed binder, Del 1-8) EVVAATPTSLLISWRHPHFPTRYYRITYGETGGNSPVQEFTVPLQPPTATISGLKPGVDYTITGYAVTLALNGHELFTPISINYRT | 19%
21 | 3′G2 PR4 (designed binder, Del 1-8) EVVAATPTSLLISWRHPHFPTRYYRITYGETGGNSPVQEFTVPLQPPTATISGLKPGVDYTITGYAVTLAQNGHELITPISINYRT | 15%
22 | 3′G3 PR4 (designed binder, Del 1-8) EVVAATPTSLLISWRHPHFPTRYYRITYGETGGNSPVQEFTVPLQPPTATISGLKPGVDYTITGYAVTFDQSDHELLTPISINYRT | 31%
23 | 3′G7 PR4 (designed binder, Del 1-8) EVVAATPTSLLISWRHPHFPTRYYRITYGETGGNSPVQEFTVPLQPPTATISGLKPGVDYTITGYAVTEGQNDQLLFIPISINYRT | 19%
24 | 3′G10 PR4 (designed binder, Del 1-8) EVVAATPTSLLISWRHPHFPTRYYRITYGETGGNSPVQEFTVPLQPPTATISGLKPGVDYTITGYAVTLTHNDHELLTPISINYRT | 30%
25 | 3′H1 PR4 (designed binder, Del 1-8) EVVAATPTSLLISWRHPHFPTRYYRITYGETGGNSPVQEFTVPLQPPTATISGLKPGVDYTITGYAVTFAQNDHQLFTPISINYRT | 22%
26 | 3′H3 PR4 (designed binder, Del 1-8) EVVAATPTSLLISWRHPHFPTRYYRITYGETGGNSPVQEFTVPLQPPTATISGLKPGVDYTITGYAVTLGLNDRELMTPISINYRT | 36%
27 | 3′H8 PR4 (designed binder, Del 1-8) EVVAATPTSLLISWRHPHFPTRYYRITYGETGGNSPVQEFTVPLQPPTATISGLKPGVDYTITGYAVTVGHNDRELITPISINYRT | 20%
28 | 3′H9 PR4 (designed binder, Del 1-8) EVVAATPTSLLISWRHPHFPTRYYRITYGETGGNSPVQEFTVPLQPPTATISGLKPGVDYTITGYAVTHGPYDQVLLTPISINYRT | 24%
29 | 3′H10 PR4 (designed binder, Del 1-8) EVVAATPTSLLISWRHPHFPTRYYRITYGETGGNSPVQEFTVPLQPPTATISGLKPGVDYTITGYAVTWAWNDHELMTPISINYRT | 14%
30 | 3′H11 PR4 (designed binder, Del 1-8) EVVAATPTSLLISWRHPHFPTRYYRITYGETGGNSPVQEFTVPLQPPTATISGLKPGVDYTITGYAVTLAHNGNELLTPISINYRT | 39%
31 | 4B11 PR3 (designed binder, Del 1-8) EVVAATPTSLLISWRHPHFPTRYYRITYGETGGNSPVQEFTVPLQPPTATISGLKPGVDYTITGYAVTVGQNNHELITPISINYRT | 15%
32 | 4C9 PR3 (designed binder, Del 1-8) EVVAATPTSLLISWRHPHFPTRYYRITYGETGGNSPVQEFTVPLQPPTATISGLKPGVDYTITGYAVTLAQNDHELLTPISINYRT | 16%
33 | 4F4 PR3 (designed binder, Del 1-8) EVVAATPTSLLISWRHPHFPTRYYRITYGETGGNSPVQEFTVPLQPPTATISGLKPGVDYTITGYAVTLAQNDRELITPISINYRT | 15%
34 | 4H5 PR3 (designed binder, Del 1-8) EVVAATPTSLLISWRHPHFPTRYYRITYGETGGNSPVQEFTVPLQPPTATISGLKPGVDYTITGYAVTVAQNGHELITPISINYRT | 14%
35 | 4′A5 PR4 (designed binder, Del 1-8) EVVAATPTSLLISWRHPHFPTRYYRITYGETGGNSPVQEFTVPLQPPTATISGLKPGVDYTITGYAVTLAQNDHELLTPISINYRT | 16%
36 | 4′B3 PR4 (designed binder, Del 1-8) EVVAATPTSLLISWRHPHFPTRYYRITYGETGGNSPVQEFTVPLQPPTATISGLKPGVDYTITGYAVTMAQNNRELLTPISINYRT | 42%
